In article PMC8315802 (2021):

Target: F-actin (skeletal muscle actin) (Oryctolagus cuniculus, UniProt P68135)
Assay: actin co-sedimentation

Kd: 1000 nM
B1: Rng2 (curly) 1-189 (protein)
chain: MDVNVGLSRLQSQAGAPVGTKGSNTRLAAKQRETLQAYDYLCRVDEAKKWIEECLGTDLGPTSTFEQSLRNGVVLALLVQKFQPDKLIKIFYSNELQFRHSDNINKFLDFIHGIGLPEIFHFELTDIYEGKNLPKVIYCIHALSYFLSMQDLAPPLIKSDENLSFTDEDVSIIVRRLRQSNVILPNFKA
